How the values were obtained:
[1] = molecular target: human complement component C1q (human) (UniProt P02745); assay: cell-based or functional assay
[2] = molecular target: human complement component C1q (human) (UniProt P02745); assay: FACS, C1q on antibody-opsonized Daudi cells, ranking table; no reliable fit
[3] = molecular target: human complement component C1q (human) (UniProt P02745); assay: FACS, C1q on antibody-opsonized Daudi cells, average; no reliable fit, too weak binding
[4] = molecular target: human complement component C1q (human) (UniProt P02745); assay: FACS, C1q on antibody-opsonized Daudi cells, Exp. 6; no reliable fit, too weak binding
[5] = molecular target: human complement component C1q (human) (UniProt P02745); assay: FACS, C1q on antibody-opsonized Daudi cells, Exp. 11; no reliable fit, too weak binding
[6] = molecular target: human complement component C1q (human) (UniProt P02745); assay: FACS, C1q on antibody-opsonized Daudi cells, Exp. 10
[7] = molecular target: human complement component C1q (human) (UniProt P02745); assay: FACS, C1q on antibody-opsonized Daudi cells, Exp. 9
[8] = molecular target: human complement component C1q (human) (UniProt P02745); assay: FACS, C1q on antibody-opsonized Daudi cells, Exp. 7
[9] = molecular target: human complement component C1q (human) (UniProt P02745); assay: FACS, C1q on antibody-opsonized Daudi cells, average (row shifted one column to the left)
[10] = molecular target: human complement component C1q (human) (UniProt P02745); assay: FACS, C1q on antibody-opsonized Daudi cells, Exp. 8
[11] = molecular target: human complement component C1q (human) (UniProt P02745); assay: FACS, C1q on antibody-opsonized Daudi cells, ranking table
[12] = molecular target: human complement component C1q (human) (UniProt P02745); assay: FACS, C1q on antibody-opsonized Daudi cells, Exp. 5; no reliable fit, too weak binding

human complement component C1q (human), sequence (P02745 23-245 limits assumed, chain 1 of 3): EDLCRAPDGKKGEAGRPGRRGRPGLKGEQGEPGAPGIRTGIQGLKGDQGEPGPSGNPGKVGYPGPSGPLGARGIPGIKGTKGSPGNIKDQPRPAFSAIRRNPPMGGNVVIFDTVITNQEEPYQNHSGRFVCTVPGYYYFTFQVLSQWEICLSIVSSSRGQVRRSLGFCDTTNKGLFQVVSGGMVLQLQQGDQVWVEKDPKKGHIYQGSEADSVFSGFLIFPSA
human complement component C1q (human), sequence (P02746 28-253 limits assumed, chain 2 of 3, further chain): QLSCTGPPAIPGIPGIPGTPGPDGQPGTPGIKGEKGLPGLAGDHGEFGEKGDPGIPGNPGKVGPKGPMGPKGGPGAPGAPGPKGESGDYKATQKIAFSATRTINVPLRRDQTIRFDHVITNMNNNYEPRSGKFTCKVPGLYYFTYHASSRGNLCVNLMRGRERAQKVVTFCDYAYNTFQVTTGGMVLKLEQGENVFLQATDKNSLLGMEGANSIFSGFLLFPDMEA
human complement component C1q (human), sequence (P02747 29-245 limits assumed, chain 3 of 3, further chain): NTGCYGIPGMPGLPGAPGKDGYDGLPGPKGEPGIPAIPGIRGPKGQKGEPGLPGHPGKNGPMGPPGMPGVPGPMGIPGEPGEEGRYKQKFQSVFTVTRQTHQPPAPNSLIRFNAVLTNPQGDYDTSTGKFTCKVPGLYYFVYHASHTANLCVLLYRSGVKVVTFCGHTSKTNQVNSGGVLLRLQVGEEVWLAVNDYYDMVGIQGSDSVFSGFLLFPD

Row | CH50 (C1q concentration giving 50% lysis), CDC on Raji cells in C1q-depleted serum [1] [µg/mL] | EC50 of CDC on Daudi cells, 20% normal human serum [1] [µg/mL] | EC50 of CDC on Raji cells, 20% normal human serum [1] [µg/mL] | Kd [2] [nM] | Kd [3] [nM] | Kd [4] [nM] | Kd [5] [nM] | Kd [6] [nM] | Kd [7] [nM] | Kd [8] [nM] | Kd [9] [nM] | Kd [10] [nM] | Kd [11] [nM] | Kd [12] [nM] | Substance
1 | > 30 | 4.73 | > 30 | 1960 | 1960 | 1230 | 2690 |  |  |  |  |  |  |  | IgG1-7D8-H433D (antibody)
2 | 0.16 | 0.33 | 1.42 |  |  |  |  | 1.6 | 5.69 | 0.72 | 3 | 1.78 | 3 |  | IgG1-7D8-H433R (antibody)
3 |  | 1.9 | 11.9 | 1270 | 1270 |  | 128 |  |  |  |  |  |  | 2420 | IgG1-7D8-Y436C (antibody)
